Results reported in article PMC6358605.

Target: BiP NBD (28–413) (Chinese hamster) (UniProt G3I8R9)
Sequence (G3I8R9 28-413): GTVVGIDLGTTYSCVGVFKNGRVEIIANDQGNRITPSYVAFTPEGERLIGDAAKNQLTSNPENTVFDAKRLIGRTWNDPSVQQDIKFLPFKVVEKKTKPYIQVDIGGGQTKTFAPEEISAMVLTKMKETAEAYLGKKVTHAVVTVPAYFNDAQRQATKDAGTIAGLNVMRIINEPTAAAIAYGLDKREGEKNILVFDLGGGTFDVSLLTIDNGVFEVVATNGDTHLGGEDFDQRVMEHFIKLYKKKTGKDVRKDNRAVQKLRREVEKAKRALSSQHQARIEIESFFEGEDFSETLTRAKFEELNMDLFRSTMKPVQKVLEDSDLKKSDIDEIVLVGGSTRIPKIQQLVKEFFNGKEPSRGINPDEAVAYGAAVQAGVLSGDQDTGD

inhibition of MABA-ADP release, concentration-dependent (Supplementary Fig. 4a, b): 26.5 µM
Substance: Full-length mouse MANF (wild-type) (from UniProt Q9CXI5 22-179) (natural protein)
